The record followed here is patent US20160058880.

The test system of data set [1] is Succinyl-βALPF-doxorubicin.
Data set [2] relates to PhAc-ALGP-doxorubicin.
Data set [3] deals with PhAc-ALAL-doxorubicin.
The subject of data set [4] is N-succinyl-beta-alanyl-L-leucyl-L-alanyl-L-leucyl-doxorubicin.
For data set [5], the system named is PhAc-AIGP-doxorubicin.
For data set [6], the system named is PhAc-ALPF-doxorubicin.
In data set [7] the test system is LGP-Dox.
Data set [8] relates to PhAc-ALAF-doxorubicin.
In data set [9] the test system is PhAc-TSGP-doxorubicin.
Data set [10] relates to PhAc-DLGP-doxorubicin.
The test system of data set [11] is PhAc-KLGP-doxorubicin.
Data set [12] has as its system PhAc-GPGP-doxorubicin.

Consider “TOP (recombinant human thimet oligopeptidase, R&D systems, Ref 3439-ZN)”, for which the “cleavage by purified TOP 5 nM (grade)” value was “-” in [1]; “+” in [2]; “+” in data set [3]; “+” in [4]; “-” in [7]; “+” in data set [9]. For the same substance, the “cleavage by purified TOP 5 nM (grade)” value is given as “-” in [10], “+” in data set [11] and “-” in [12]. Besides, the “cleavage by purified TOP 5 nM (grade; * = less than 5% of metabolites detected)” value in data set [5], in data set [6] and in data set [8] was “-*” throughout.
